According to patent US20230116446A1:

Molecular target: CD122/CD132 complex (UniProt P14784)
Assay: cell-based or functional assay

Sequence of CD122/CD132 complex (P14784 27-551 limits assumed, chain 1 of 2): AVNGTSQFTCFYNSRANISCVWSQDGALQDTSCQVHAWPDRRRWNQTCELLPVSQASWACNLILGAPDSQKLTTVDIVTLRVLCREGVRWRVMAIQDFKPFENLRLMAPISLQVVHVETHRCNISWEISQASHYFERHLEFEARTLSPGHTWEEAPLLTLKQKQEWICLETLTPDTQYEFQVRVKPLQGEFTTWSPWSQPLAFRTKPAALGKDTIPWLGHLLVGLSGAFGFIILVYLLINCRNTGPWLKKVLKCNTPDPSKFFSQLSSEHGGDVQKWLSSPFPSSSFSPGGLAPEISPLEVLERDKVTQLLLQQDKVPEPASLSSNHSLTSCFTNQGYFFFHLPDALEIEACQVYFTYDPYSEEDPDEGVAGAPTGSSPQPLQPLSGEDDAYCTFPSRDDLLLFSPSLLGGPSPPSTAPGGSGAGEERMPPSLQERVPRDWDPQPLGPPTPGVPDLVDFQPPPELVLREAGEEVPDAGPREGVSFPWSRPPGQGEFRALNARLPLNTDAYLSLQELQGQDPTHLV
Sequence of CD122/CD132 complex (P31785 23-369 limits assumed, chain 2 of 2, further chain): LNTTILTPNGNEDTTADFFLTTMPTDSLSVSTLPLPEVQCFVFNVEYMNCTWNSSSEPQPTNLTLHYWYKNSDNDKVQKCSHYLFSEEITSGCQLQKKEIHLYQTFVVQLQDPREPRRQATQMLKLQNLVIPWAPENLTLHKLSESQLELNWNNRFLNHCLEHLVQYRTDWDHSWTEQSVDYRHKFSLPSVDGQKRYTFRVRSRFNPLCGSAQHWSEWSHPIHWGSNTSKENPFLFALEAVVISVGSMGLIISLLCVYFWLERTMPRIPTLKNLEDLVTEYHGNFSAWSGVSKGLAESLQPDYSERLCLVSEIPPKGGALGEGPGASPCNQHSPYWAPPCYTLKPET

| EC50, IL2 reporter assay (HEK 293 reporter cells, SEAP, absorbance at 650 nM) | Substance |
| --- | --- |
| 66 pM | Fc-IL15×Fc-IL15Rα sushi domain fusion protein (Fc fusion) |
| 21 pM | Recombinant IL-15 (PeproTech 200-15) (from UniProt P40933 49-162) (ligand) |
